Measurements from article PMC3392456.
Read-outs that look alike come from different tables or passages of the source.

Tests used:
[1] = target: SpMre11^cd R85A (S. pombe)
[2] = target: S. pombe Mre11 catalytic domain, SpMre11_(15–413) (S. pombe); experiment: crystal structure
[3] = target: S. pombe Mre11 catalytic domain, SpMre11_(15–413) (S. pombe); experiment: crystal structure; remark: listed apart in the source
[4] = target: S. pombe Mre11 catalytic domain, SpMre11_(15–413) (S. pombe); experiment: crystal structure; remark: listed apart in the source

For SpMre11^cd R85A (domain or fragment), the stoichiometry N [1] was 2.

Molecule “S. pombe Mre11 catalytic domain, SpMre11_(15–413) (domain or fragment)” has a stoichiometry N [2] of 2 and a stoichiometry N [3] of 2.

B1: S. pombe Nbs1 Mre11 interacting region, residues 474–531 (domain or fragment)
chain: ESEDDKAFEENRRLRNLGSVEYIRIMSSEKSNANSRHTSKYYSGRKNFKKFQKKASQK
Work on B1 yielded a stoichiometry N (Nbs1 per Mre11 (2:2)) [4] of 1.
